In assay [1] the target is T1, human GPRC5D (human, UniProt Q9NZD1 1-345).
T1 construct: also called G protein-coupled receptor class C group 5 member D; hu GPCR5D
Description: cell ELISA, CHO hu GPRC5D (EC/IC50 rel). The procedure: Stable transfected CHO clones expressing either human GPRCSD or cynomolgus GPRCSD or murine GPRCSD or human GPRCSA were used to analyze the binding of potential lead candidate antibodies as IgGs. In detail, 10⁴ cells (viability≥98%) were seeded into 384 well-microtiter plates (BD Poly D-Lysin, #356662, volume: 25 μl/well) using fresh culture medium. After overnight incubation at 37° C., 25 μl/well dilutions of antibodies were added (15×1:3 dilutions in 1×PBS, assay conc. starts at 30 μg/ml) to the cells for 2 hours at 4° C. After one washing step using 90 μl/well PBST (10×PBS, Roche, #11666789001+0.1% Tween 20), cells were subsequently fixed by the addition of 50 μl/well 0.05% glutaraldehyde (Sigma Cat. No: G5882 in 1×PBS) for 10 min at room temperature (RT). After three additional washing steps using 90 μl/well PBST, secondary antibodies were added for detection: for human antibodies goat anti-human Ig a chain antibody HRP conjugate (Millipore #AP502P) diluted 1:2000 in blocking buffer (1×PBS (Roche #11666789001)+2% BSA (Bovine Serum Albumin Fraction V, fatty acid free, Roche, #10735086001)+0.05% Tween 20) was used (25 μl/well). […] After incubation for 1 h at RT and three additional washing steps using 90 μl/well PBST, 25 μl/well TMB substrate was added (Roche order no. 11835033001) for 10 min and color development to final ODs was determined by measurement at 370 nm/492 nm.
For the characterization of the humanization variants of the VH and VL domains of the GPRC5D binders the ELISA protocol as described above was used (see Example 7). The data are summarized in the table 10 for the humanization variants of 5E11 and in table 11 for the humanization variants of 5F11.
For orientation: In an ELISA, binding on a coated surface is turned into a signal by an enzyme label.

Assay [2] deals with T1, human GPRC5D. Description: cell-based or functional assay.

One may read the EC50 as the concentration that produces a half-maximal response.

Several values for one entry are separate records, joined by “and”; a condition that tells them apart may be missing. Equal entries are not always repeated.

T1 sequence (Q9NZD1 whole entry): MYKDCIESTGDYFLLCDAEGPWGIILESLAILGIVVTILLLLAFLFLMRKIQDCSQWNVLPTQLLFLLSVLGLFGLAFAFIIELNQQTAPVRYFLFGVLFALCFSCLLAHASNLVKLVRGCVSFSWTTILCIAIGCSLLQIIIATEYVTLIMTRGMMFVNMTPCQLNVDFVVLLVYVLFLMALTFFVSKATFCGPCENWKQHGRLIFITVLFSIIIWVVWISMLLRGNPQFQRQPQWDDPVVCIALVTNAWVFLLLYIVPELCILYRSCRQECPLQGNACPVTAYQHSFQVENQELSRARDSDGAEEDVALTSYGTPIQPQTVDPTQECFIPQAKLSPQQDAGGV

B1: P1AE5708 (antibody, V domains shown)
VH: EVQLLESGGGLVQPGGSLRLSCAASGFTFSKYAMAWVRQAPGKGLEWVASISTGGVNTYYRDSVKARFTISRDNSKNTLYLQMNSLRAEDTAVYYCATHTGDYFDYWGQGTMVTVSS
VL: DIVMTQSPDSLAVSLGERATINCKSSQSVSISGINLMNWYQQKPGQQPKLLIYHASILASGVPDRFSGSGSGTDFTLTISSLQAEDVAVYYCQQTRESPLTFGQGTRLEIK
notes: Humanized 5E11 IgG; PGLALA Fc implied by the CAR-J assay; also called 5E11_VH1a + 5E11_VL1c
For the molecule B1, the EC50 with human GPRC5D [1] was 0.012 µg/mL and 0.08 nM. The “CAR-J2 EC50 [ng/mL] (PGLALA-CAR-J activation, L363 target cells)” value (“CAR-J2 EC50 [ng/mL]” for short) with human GPRC5D [2] is 456 ng/mL.

B2: P1AE5724 (antibody, V domains shown)
VH: EVQLLESGGGLVQPGGSLRLSCAASGFTFSKYAMAWVRQAPGKGLEWVASISTGGVNTYYADSVKGRFTISRDNSKNTLYLQMNSLRAEDTAVYYCATHTGDYFDYWGQGTMVTVSS
VL: DIQMTQSPSSLSASVGDRVTITCRASQSVSISGINLMNWYQQKPGKQPKLLIYHASILASGVPSRFSGSGSGTDFTLTISSLQPEDFATYYCQQTRESPLTFGQGTRLEIK
notes: Humanized 5E11 IgG; PGLALA Fc implied by the CAR-J assay; also called 5E11_VH1c + 5E11_VL3a
Turning to B2, in the assay with human GPRC5D [1], the EC50 was 0.0053 µg/mL and 0.04 nM. In the assay with human GPRC5D [2], the “CAR-J2 EC50 [ng/mL]” value stood at 3.6 ng/mL.

B3: P1AE5712 (antibody, V domains shown)
VH: EVQLLESGGGLVQPGGSLRLSCAASGFTFSKYAMAWVRQAPGKGLEWVASISTGGVNTYYRDSVKARFTISRDNSKNTLYLQMNSLRAEDTAVYYCATHTGDYFDYWGQGTMVTVSS
VL: DIQMTQSPSSLSASVGDRVTITCRASQSVSISGINLMNWYQQKPGKQPKLLIYHASILASGVPSRFSGSGSGTDFTLTISSLQPEDFATYYCQQTRESPLTFGQGTRLEIK
notes: Humanized 5E11 IgG; PGLALA Fc implied by the CAR-J assay; also called 5E11_VH1a + 5E11_VL3a
Consider B3, for which the EC50 with human GPRC5D [1] is 0.0131 µg/mL and 0.09 nM. Moreover, the “CAR-J2 EC50 [ng/mL]” value with human GPRC5D [2] came out at 16.1 ng/mL.

B4: P1AE5719 (antibody, V domains shown)
VH: ELQLLESGGGLVQPGGSLRLSCAASGFTFSKYAMAWVRQAPGKGLEWVASISTGGVNTYYRDSVKARFTISRDNAKNTLYLQMNSLRAEDTAVYYCATHTGDYFDYWGQGTMVTVSS
VL: DIQMTQSPSSLSASVGDRVTITCRASQSVSISGINLMNWYQQKPGQQPKLLIYHASILASGVPSRFSGSGSGTDFTLTISSLQPEDFATYYCQQTRESPLTFGQGTRLEIK
notes: Humanized 5E11 IgG; PGLALA Fc implied by the CAR-J assay; also called 5E11_VH1b + 5E11_VL3b
Take B4: in the assay with human GPRC5D [1], the EC50 was 0.0166 µg/mL and 0.11 nM. Moreover, the “CAR-J2 EC50 [ng/mL]” value in the assay with human GPRC5D [2] turned out to be 2.8 ng/mL.

B5: P1AE5731 (antibody, V domains shown)
VH: ELQLLESGGGLVQPGGSLRLSCAASGFTFSKYAMAWVRQAPGKGLEWVASISTGGVNTYYADSVKGRFTISRDNAKNTLYLQMNSLRAEDTAVYYCATHTGDYFDYWGQGTMVTVSS
VL: DIQMTQSPSSLSASVGDRVTITCRASQSVSISGINLMNWYQQKPGQQPKLLIYHASILASGVPSRFSGSGSGTDFTLTISSLQPEDFATYYCQQTRESPLTFGQGTRLEIK
notes: Humanized 5E11 IgG; PGLALA Fc implied by the CAR-J assay; also called 5E11_VH1d + 5E11_VL3b
On to B5, for which the concentration giving a half-maximal response (EC50) with human GPRC5D [1] was 0.0052 µg/mL and 0.03 nM. In addition, the “CAR-J2 EC50 [ng/mL]” value in the assay with human GPRC5D [2] stood at 2.3 ng/mL.

B6: P1AE5725 (antibody, V domains shown)
VH: EVQLLESGGGLVQPGGSLRLSCAASGFTFSKYAMAWVRQAPGKGLEWVASISTGGVNTYYADSVKGRFTISRDNSKNTLYLQMNSLRAEDTAVYYCATHTGDYFDYWGQGTMVTVSS
VL: DIQMTQSPSSLSASVGDRVTITCRASQSVSISGINLMNWYQQKPGQQPKLLIYHASILASGVPSRFSGSGSGTDFTLTISSLQPEDFATYYCQQTRESPLTFGQGTRLEIK
notes: Humanized 5E11 IgG; PGLALA Fc implied by the CAR-J assay; also called 5E11_VH1c + 5E11_VL3b
On to B6, for which the 50% effective concentration (EC50) with human GPRC5D [1] is 0.0051 µg/mL and 0.03 nM. For the same molecule, the “CAR-J2 EC50 [ng/mL]” value with human GPRC5D [2] was 10.9 ng/mL.

B7: P1AE5727 (antibody, V domains shown)
VH: ELQLLESGGGLVQPGGSLRLSCAASGFTFSKYAMAWVRQAPGKGLEWVASISTGGVNTYYADSVKGRFTISRDNAKNTLYLQMNSLRAEDTAVYYCATHTGDYFDYWGQGTMVTVSS
VL: DIVMTQSPDSLAVSLGERATINCKSSQSVSISGINLMNWYQQKPGQQPKLLIYHASILASGVPDRFSGSGSGTDFTLTISSLQAEDVAVYYCQQTRESPLTFGQGTRLEIK
notes: Humanized 5E11 IgG; PGLALA Fc implied by the CAR-J assay; also called 5E11_VH1d + 5E11_VL1c
For the molecule B7, the EC50 in the assay with human GPRC5D [1] was 0.0087 µg/mL and 0.06 nM. For the same molecule, the “CAR-J2 EC50 [ng/mL]” value with human GPRC5D [2] came to 6.3 ng/mL.

B8: P1AE5714 (antibody, V domains shown)
VH: ELQLLESGGGLVQPGGSLRLSCAASGFTFSKYAMAWVRQAPGKGLEWVASISTGGVNTYYRDSVKARFTISRDNAKNTLYLQMNSLRAEDTAVYYCATHTGDYFDYWGQGTMVTVSS
VL: DIVMTQSPDSLAVSLGERATINCRASQSVSISGINLMNWYQQKPGQQPKLLIYHASILASGVPDRFSGSGSGTDFTLTISSLQAEDVAVYYCQQTRESPLTFGQGTRLEIK
notes: Humanized 5E11 IgG; PGLALA Fc implied by the CAR-J assay; also called 5E11_VH1b + 5E11_VL1a
Take B8: in the assay with human GPRC5D [1], the 50% effective concentration (EC50) was 0.0129 µg/mL and 0.09 nM. Moreover, in the assay with human GPRC5D [2], the “CAR-J2 EC50 [ng/mL]” value worked out at 5.5 ng/mL.

B9: P1AE5726 (antibody, V domains shown)
VH: ELQLLESGGGLVQPGGSLRLSCAASGFTFSKYAMAWVRQAPGKGLEWVASISTGGVNTYYADSVKGRFTISRDNAKNTLYLQMNSLRAEDTAVYYCATHTGDYFDYWGQGTMVTVSS
VL: DIVMTQSPDSLAVSLGERATINCRASQSVSISGINLMNWYQQKPGQQPKLLIYHASILASGVPDRFSGSGSGTDFTLTISSLQAEDVAVYYCQQTRESPLTFGQGTRLEIK
notes: Humanized 5E11 IgG; PGLALA Fc implied by the CAR-J assay; also called 5E11_VH1d + 5E11_VL1a
On to B9, for which the concentration for a half-maximal effect (EC50) in the assay with human GPRC5D [1] was 0.0076 µg/mL and 0.05 nM. Moreover, the “CAR-J2 EC50 [ng/mL]” value with human GPRC5D [2] came out at 37.8 ng/mL.

B10: P1AE5715 (antibody, V domains shown)
VH: ELQLLESGGGLVQPGGSLRLSCAASGFTFSKYAMAWVRQAPGKGLEWVASISTGGVNTYYRDSVKARFTISRDNAKNTLYLQMNSLRAEDTAVYYCATHTGDYFDYWGQGTMVTVSS
VL: DIVMTQSPDSLAVSLGERATINCKSSQSVSISGINLMNWYQQKPGQQPKLLIYHASILASGVPDRFSGSGSGTDFTLTISSLQAEDVAVYYCQQTRESPLTFGQGTRLEIK
notes: Humanized 5E11 IgG; PGLALA Fc implied by the CAR-J assay; also called 5E11_VH1b + 5E11_VL1c
For the molecule B10, the concentration giving a half-maximal response (EC50) with human GPRC5D [1] was 0.0211 µg/mL and 0.14 nM. Besides, the “CAR-J2 EC50 [ng/mL]” value with human GPRC5D [2] was determined as 3.6 ng/mL.

B11: P1AE5721 (antibody, V domains shown)
VH: EVQLLESGGGLVQPGGSLRLSCAASGFTFSKYAMAWVRQAPGKGLEWVASISTGGVNTYYADSVKGRFTISRDNSKNTLYLQMNSLRAEDTAVYYCATHTGDYFDYWGQGTMVTVSS
VL: DIVMTQSPDSLAVSLGERATINCKSSQSVSISGINLMNWYQQKPGQQPKLLIYHASILASGVPDRFSGSGSGTDFTLTISSLQAEDVAVYYCQQTRESPLTFGQGTRLEIK
notes: Humanized 5E11 IgG; PGLALA Fc implied by the CAR-J assay; also called 5E11_VH1c + 5E11_VL1c
For the molecule B11, in the assay with human GPRC5D [1], the concentration for a half-maximal effect (EC50) was 0.0183 µg/mL and 0.12 nM. In the assay with human GPRC5D [2], the “CAR-J2 EC50 [ng/mL]” value was 25 ng/mL.

B12: P1AE5713 (antibody, V domains shown)
VH: EVQLLESGGGLVQPGGSLRLSCAASGFTFSKYAMAWVRQAPGKGLEWVASISTGGVNTYYRDSVKARFTISRDNSKNTLYLQMNSLRAEDTAVYYCATHTGDYFDYWGQGTMVTVSS
VL: DIQMTQSPSSLSASVGDRVTITCRASQSVSISGINLMNWYQQKPGQQPKLLIYHASILASGVPSRFSGSGSGTDFTLTISSLQPEDFATYYCQQTRESPLTFGQGTRLEIK
notes: Humanized 5E11 IgG; PGLALA Fc implied by the CAR-J assay; also called 5E11_VH1a + 5E11_VL3b
Take B12: the EC50 with human GPRC5D [1] is 0.0165 µg/mL and 0.11 nM. For the same molecule, the “CAR-J2 EC50 [ng/mL]” value with human GPRC5D [2] turned out to be 76.9 ng/mL.

B13: P1AE5720 (antibody, V domains shown)
VH: EVQLLESGGGLVQPGGSLRLSCAASGFTFSKYAMAWVRQAPGKGLEWVASISTGGVNTYYADSVKGRFTISRDNSKNTLYLQMNSLRAEDTAVYYCATHTGDYFDYWGQGTMVTVSS
VL: DIVMTQSPDSLAVSLGERATINCRASQSVSISGINLMNWYQQKPGQQPKLLIYHASILASGVPDRFSGSGSGTDFTLTISSLQAEDVAVYYCQQTRESPLTFGQGTRLEIK
notes: Humanized 5E11 IgG; PGLALA Fc implied by the CAR-J assay; also called 5E11_VH1c + 5E11_VL1a
Take B13: the EC50 with human GPRC5D [1] is 0.0217 µg/mL and 0.14 nM. The “CAR-J2 EC50 [ng/mL]” value with human GPRC5D [2] came to 6.3 ng/mL.

The record behind these values is patent publication US20220259318A1 (Hoffmann-La Roche, published 2022).
